Results reported in publication PMC10786891, “Massively parallel profiling of RNA-targeting CRISPR-Cas13d”.

T1: EsCas13d, nuclease-dead (Eubacterium siraeum, UniProt B0MS50, R295A;H300A;R849A;H854A)
T1 sequence: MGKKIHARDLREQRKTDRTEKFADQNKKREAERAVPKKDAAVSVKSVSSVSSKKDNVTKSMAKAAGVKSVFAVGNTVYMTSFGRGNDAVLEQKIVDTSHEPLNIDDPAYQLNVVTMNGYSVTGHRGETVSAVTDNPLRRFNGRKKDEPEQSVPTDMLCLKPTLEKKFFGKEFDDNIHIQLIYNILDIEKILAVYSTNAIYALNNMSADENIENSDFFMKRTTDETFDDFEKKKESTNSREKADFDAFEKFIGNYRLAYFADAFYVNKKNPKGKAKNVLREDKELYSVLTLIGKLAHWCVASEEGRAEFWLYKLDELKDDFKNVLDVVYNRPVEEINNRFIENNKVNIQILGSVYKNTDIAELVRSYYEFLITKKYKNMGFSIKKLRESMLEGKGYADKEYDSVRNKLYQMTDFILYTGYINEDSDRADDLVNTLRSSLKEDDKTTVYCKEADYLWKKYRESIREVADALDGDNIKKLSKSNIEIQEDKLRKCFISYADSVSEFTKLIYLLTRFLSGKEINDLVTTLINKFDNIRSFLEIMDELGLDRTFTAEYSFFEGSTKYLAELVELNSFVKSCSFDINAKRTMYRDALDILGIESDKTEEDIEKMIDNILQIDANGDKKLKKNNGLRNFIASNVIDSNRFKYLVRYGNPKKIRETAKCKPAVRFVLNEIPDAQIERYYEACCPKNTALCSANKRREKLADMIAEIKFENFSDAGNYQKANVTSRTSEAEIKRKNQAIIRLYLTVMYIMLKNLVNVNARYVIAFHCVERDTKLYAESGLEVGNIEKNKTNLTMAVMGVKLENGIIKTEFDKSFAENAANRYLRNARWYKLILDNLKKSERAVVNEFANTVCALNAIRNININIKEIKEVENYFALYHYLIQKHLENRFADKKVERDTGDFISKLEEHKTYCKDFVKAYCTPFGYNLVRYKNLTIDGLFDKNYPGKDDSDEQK

B1: target 1 C6A,U11G (mixed)
RNA 1: CACCCGUGCAAAAAUGCAGGGGUCUAAAACUGAGCGGAUAACCUCUCUAUGG
RNA 2: GGGAAUGGAUCCACAUCUACGAAUUCGUACCAUAGAGAGGGUAUCAGCUCACCGAGAUCGGAAGAGCACACGU
B2: target 1 C6G,C22A (mixed)
RNA 1: CACCCGUGCAAAAAUGCAGGGGUCUAAAACUGAGCGGAUAACCUCUCUAUGG
RNA 2: GGGAAUGGAUCCACAUCUACGAAUUCGUAACAUAGAGAGGUUAUCGGCUCACCGAGAUCGGAAGAGCACACGU
B3: target 1 A1U,U8A (mixed)
RNA 1: CACCCGUGCAAAAAUGCAGGGGUCUAAAACUGAGCGGAUAACCUCUCUAUGG
RNA 2: GGGAAUGGAUCCACAUCUACGAAUUCGUACCAUAGAGAGGUUAACCGCUCUCCGAGAUCGGAAGAGCACACGU
B4: target 3 G3A,A5G (mixed)
RNA 1: CACCCGUGCAAAAUUGCAGGGGUCUAAAACGACCUGAAUAUUUCAGAUCAAA
RNA 2: GGGAAUGGAUCCACAUCUACGAAUUCGUUUUUGAUCUGAAAUAUUCGGAUCUGCAGAUCGGAAGAGCACACGU
B5: target 3 insC 3' of 8,insG 3' of 6 (mixed)
RNA 1: CACCCGUGCAAAAUUGCAGGGGUCUAAAACGACCUGAAUAUUUCAGAUCAAA
RNA 2: GGGAAUGGAUCCACAUCUACGAAUUCGUUUUUGAUCUGAAAUAUCUCGAGGUCUGCAGAUCGGAAGAGCACACGU
B6: target 3 insA 3' of 7 (mixed)
RNA 1: CACCCGUGCAAAAUUGCAGGGGUCUAAAACGACCUGAAUAUUUCAGAUCAAA
RNA 2: GGGAAUGGAUCCACAUCUACGAAUUCGUUUUUGAUCUGAAAUAUUACAGGUCUGCAGAUCGGAAGAGCACACGU
B7: target 3 U8C (mixed)
RNA 1: CACCCGUGCAAAAUUGCAGGGGUCUAAAACGACCUGAAUAUUUCAGAUCAAA
RNA 2: GGGAAUGGAUCCACAUCUACGAAUUCGUUUUUGAUCUGAAAUACUCAGGUCUGCAGAUCGGAAGAGCACACGU
B8: target 3 G4C,A12C (mixed)
RNA 1: CACCCGUGCAAAAUUGCAGGGGUCUAAAACGACCUGAAUAUUUCAGAUCAAA
RNA 2: GGGAAUGGAUCCACAUCUACGAAUUCGUUUUUGAUCUGACAUAUUCACGUCUGCAGAUCGGAAGAGCACACGU
B9: target 3 insG 3' of 7,insA 3' of 7 (mixed)
RNA 1: CACCCGUGCAAAAUUGCAGGGGUCUAAAACGACCUGAAUAUUUCAGAUCAAA
RNA 2: GGGAAUGGAUCCACAUCUACGAAUUCGUUUUUGAUCUGAAAUAUUGACAGGUCUGCAGAUCGGAAGAGCACACGU
B10: target 3 complement block 5-8 (mixed)
RNA 1: CACCCGUGCAAAAUUGCAGGGGUCUAAAACGACCUGAAUAUUUCAGAUCAAA
RNA 2: GGGAAUGGAUCCACAUCUACGAAUUCGUUUUUGAUCUGAAAUAAAGUGGUCUGCAGAUCGGAAGAGCACACGU
B11: target 3 insA 3' of 14,insG 3' of 5 (mixed)
RNA 1: CACCCGUGCAAAAUUGCAGGGGUCUAAAACGACCUGAAUAUUUCAGAUCAAA
RNA 2: GGGAAUGGAUCCACAUCUACGAAUUCGUUUUUGAUCUGAAAAUAUUCAGGGUCUGCAGAUCGGAAGAGCACACGU
B12: target 3 insC 3' of 9,insG 3' of 8 (mixed)
RNA 1: CACCCGUGCAAAAUUGCAGGGGUCUAAAACGACCUGAAUAUUUCAGAUCAAA
RNA 2: GGGAAUGGAUCCACAUCUACGAAUUCGUUUUUGAUCUGAAAUACUGUCAGGUCUGCAGAUCGGAAGAGCACACGU
B13: target 3 insA 3' of 7,insU 3' of 5 (mixed)
RNA 1: CACCCGUGCAAAAUUGCAGGGGUCUAAAACGACCUGAAUAUUUCAGAUCAAA
RNA 2: GGGAAUGGAUCCACAUCUACGAAUUCGUUUUUGAUCUGAAAUAUUACAUGGUCUGCAGAUCGGAAGAGCACACGU
B14: target 3 A5C,U22A (mixed)
RNA 1: CACCCGUGCAAAAUUGCAGGGGUCUAAAACGACCUGAAUAUUUCAGAUCAAA
RNA 2: GGGAAUGGAUCCACAUCUACGAAUUCGUUAUUGAUCUGAAAUAUUCCGGUCUGCAGAUCGGAAGAGCACACGU
B15: target 3 insC 3' of 22,insU 3' of 3 (mixed)
RNA 1: CACCCGUGCAAAAUUGCAGGGGUCUAAAACGACCUGAAUAUUUCAGAUCAAA
RNA 2: GGGAAUGGAUCCACAUCUACGAAUUCGUUUCUUGAUCUGAAAUAUUCAGGUUCUGCAGAUCGGAAGAGCACACGU
B16: target 3 insA 3' of 21,insU 3' of 4 (mixed)
RNA 1: CACCCGUGCAAAAUUGCAGGGGUCUAAAACGACCUGAAUAUUUCAGAUCAAA
RNA 2: GGGAAUGGAUCCACAUCUACGAAUUCGUUUUAUGAUCUGAAAUAUUCAGUGUCUGCAGAUCGGAAGAGCACACGU
B17: target 3 insA 3' of 22,insC 3' of 5 (mixed)
RNA 1: CACCCGUGCAAAAUUGCAGGGGUCUAAAACGACCUGAAUAUUUCAGAUCAAA
RNA 2: GGGAAUGGAUCCACAUCUACGAAUUCGUUUAUUGAUCUGAAAUAUUCACGGUCUGCAGAUCGGAAGAGCACACGU
B18: target 3 insU 3' of 4,insC 3' of 4 (mixed)
RNA 1: CACCCGUGCAAAAUUGCAGGGGUCUAAAACGACCUGAAUAUUUCAGAUCAAA
RNA 2: GGGAAUGGAUCCACAUCUACGAAUUCGUUUUUGAUCUGAAAUAUUCAGUCGUCUGCAGAUCGGAAGAGCACACGU
B19: target 3 insA 3' of 21 (mixed)
RNA 1: CACCCGUGCAAAAUUGCAGGGGUCUAAAACGACCUGAAUAUUUCAGAUCAAA
RNA 2: GGGAAUGGAUCCACAUCUACGAAUUCGUUUUAUGAUCUGAAAUAUUCAGGUCUGCAGAUCGGAAGAGCACACGU
B20: target 3 U2C,G14A (mixed)
RNA 1: CACCCGUGCAAAAUUGCAGGGGUCUAAAACGACCUGAAUAUUUCAGAUCAAA
RNA 2: GGGAAUGGAUCCACAUCUACGAAUUCGUUUUUGAUCUAAAAUAUUCAGGCCUGCAGAUCGGAAGAGCACACGU
B21: target 3 insU 3' of 4,insU 3' of 1 (mixed)
RNA 1: CACCCGUGCAAAAUUGCAGGGGUCUAAAACGACCUGAAUAUUUCAGAUCAAA
RNA 2: GGGAAUGGAUCCACAUCUACGAAUUCGUUUUUGAUCUGAAAUAUUCAGUGUCUUGCAGAUCGGAAGAGCACACGU
B22: target 3 complement block 4-9 (mixed)
RNA 1: CACCCGUGCAAAAUUGCAGGGGUCUAAAACGACCUGAAUAUUUCAGAUCAAA
RNA 2: GGGAAUGGAUCCACAUCUACGAAUUCGUUUUUGAUCUGAAAUUAAGUCGUCUGCAGAUCGGAAGAGCACACGU
B23: target 3 insU 3' of 16,insU 3' of 4 (mixed)
RNA 1: CACCCGUGCAAAAUUGCAGGGGUCUAAAACGACCUGAAUAUUUCAGAUCAAA
RNA 2: GGGAAUGGAUCCACAUCUACGAAUUCGUUUUUGAUCUUGAAAUAUUCAGUGUCUGCAGAUCGGAAGAGCACACGU
B24: target 3 insG 3' of 8,insA 3' of 7 (mixed)
RNA 1: CACCCGUGCAAAAUUGCAGGGGUCUAAAACGACCUGAAUAUUUCAGAUCAAA
RNA 2: GGGAAUGGAUCCACAUCUACGAAUUCGUUUUUGAUCUGAAAUAUGUACAGGUCUGCAGAUCGGAAGAGCACACGU
B25: target 3 insU 3' of 22,insC 3' of 9 (mixed)
RNA 1: CACCCGUGCAAAAUUGCAGGGGUCUAAAACGACCUGAAUAUUUCAGAUCAAA
RNA 2: GGGAAUGGAUCCACAUCUACGAAUUCGUUUUUUGAUCUGAAAUACUUCAGGUCUGCAGAUCGGAAGAGCACACGU
B26: target 3 insG 3' of 6,insA 3' of 4 (mixed)
RNA 1: CACCCGUGCAAAAUUGCAGGGGUCUAAAACGACCUGAAUAUUUCAGAUCAAA
RNA 2: GGGAAUGGAUCCACAUCUACGAAUUCGUUUUUGAUCUGAAAUAUUCGAGAGUCUGCAGAUCGGAAGAGCACACGU
B27: target 3 insC 3' of 5,insA 3' of 4 (mixed)
RNA 1: CACCCGUGCAAAAUUGCAGGGGUCUAAAACGACCUGAAUAUUUCAGAUCAAA
RNA 2: GGGAAUGGAUCCACAUCUACGAAUUCGUUUUUGAUCUGAAAUAUUCACGAGUCUGCAGAUCGGAAGAGCACACGU
B28: target 3 insU 3' of 4,insG 3' of 1 (mixed)
RNA 1: CACCCGUGCAAAAUUGCAGGGGUCUAAAACGACCUGAAUAUUUCAGAUCAAA
RNA 2: GGGAAUGGAUCCACAUCUACGAAUUCGUUUUUGAUCUGAAAUAUUCAGUGUCGUGCAGAUCGGAAGAGCACACGU

These binders were tested against T1, EsCas13d, nuclease-dead (assay: crRNA (strand 1, pre-loaded); Mg2+; 40 mM Tris-HCl pH 7.5, 150 mM NaCl, 6 mM MgCl2, 1 mM DTT, 0.1% Tween-20, 0.2 mg/ml BSA; 25 C; 10 min per concentration, then washed). Conditions: tags: His6-TwinStrep-SUMO cleaved; N-terminal SNAP kept (SNAP-Surface 488); label: 3' end held by stalled T7 RNA polymerase.

Point of comparison: B4, Kd 42.5 ± 6 nM. Against it:
- B1 — 3.9-fold lower, 10.8 ± 0.4 nM
- B2 — 2.9-fold lower, 14.7 ± 1 nM
- B3 — 1.6-fold lower, 26.7 ± 1.3 nM
- B5 — 1.9-fold higher, 79.5 ± 20.5 nM
- B6 — within error, 44 ± 8.5 nM
- B7 — within 1.5-fold, 30.4 ± 2.25 nM
- B8 — 2.2-fold higher, 95 ± 30 nM
- B9 — within error, 39.5 ± 5 nM
- B10 — within 1.5-fold, 60.5 ± 6 nM
- B11 — 2.5-fold higher, 105 ± 31 nM
- B12 — 1.9-fold higher, 82.5 ± 12.5 nM
- B13 — 2.7-fold lower, 15.7 ± 1.3 nM
- B14 — within 1.5-fold, 60.5 ± 10.5 nM
- B15 — within error, 58 ± 10 nM
- B16 — 3.6-fold lower, 11.9 ± 2.1 nM
- B17 — 1.7-fold lower, 24.9 ± 3.35 nM
- B18 — 2.2-fold lower, 19.5 ± 2.5 nM
- B19 — within error, 33.5 ± 4.5 nM
- B20 — 1.5-fold higher, ~64.5 nM
- B21 — within error, 37 ± 7 nM
- B22 — 1.6-fold higher, 67.5 ± 18 nM
- B23 — within error, 37 ± 7 nM
- B24 — within error, 42 ± 6 nM
- B25 — 1.9-fold higher, 82.5 ± 21.5 nM
- B26 — 3.5-fold lower, 12.3 ± 1.1 nM
- B27 — 4.3-fold lower, 9.8 ± 0.9 nM
- B28 — within error, 43 ± 11.5 nM
